The results in this text go back to patent publication US6127149.

In the assay the target is cultured cells CH3/10T1/2 clone 8 (product of Dainippon Pharmaceutical Co., Ltd.). Kind of assay: adhesion of cells to coated dish (10 ug/cm^2), 1 hour, DNA of attached cells by spectrophotometer.

B1: invariant modified epimorphin fragment: fragment (2) of mouse epimorphin (Examples 10 to 12) (protein)
chain: NGNRTSVDLRIRRTQHSVLSRKFVDVMTEYNEAQILFRERSKGRIQRQLEITGRTTTDDELEEMLESGKPSIFISDIISDSQIT
Molecule B1 came in with an absorbance (OD at 260 nm) of attached cells of 0.33 OD at 260 nm.
